Test results reported in patent US20250034594A1, “RNA-GUIDED GENOME RECOMBINEERING AT KILOBASE SCALE” (THE BOARD OF TRUSTEES OF THE LELAND STANFORD JUNIOR …, priority 2021, published 2025).

How the values were obtained:
Assay type in all cases: cell-based
gene editing with dCas9 = assay: Screen of 322 new SSAP proteins, gene editing activity with dCas9 (Table 5); parameters: dCas9 with SSAP activity: scale not given here
Outline: (§1)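 First, 322 new single-strand annealing proteins are identified from sequences. Next they are synthesized. Finally each is assayed for editing in combination with Cas9 and, separately, dCas9.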

[1] = system: gene editing with Cas9 and dCas9; assay: Screen of 322 new SSAP proteins, activity across all experiments (Cas9 and dCas9, Table 5); parameters: scale not given here
Outline: as §1

gene editing with Cas9 = assay: Screen of 322 new SSAP proteins, gene editing activity with Cas9 (Table 5); parameters: Cas9 with SSAP activity: scale not given here
Outline: as §1

[2] = system: endogenous genome targets (ACTB, HSP90AA1); assay: Arrayed SSAP library screening, mKate knock-in assay (editing efficiency); settings: average of HSP90 and ACTB, 3 days after transfection; for Editing Efficiency (Normalized, Average, two targets): fold over negative control (Flag_HA); for Editing Efficiency (Absolute, Average, two targets): percent of mKate knock-in
Method: Arrayed SSAP library screening on endogenous genome targets (ACTB. HSP90AA1) using mKate knock-in assay.
SSAP-encoding plasmids were purified and quantified.
(§2) Each SSAP encoding plasmid was tested in duplicate, including a negative control (same plasmid encoding Flag_HA which is not expected to promote gene editing). Transfections were in 96-well plates and transfection efficiency was estimated to be 50%.
(§3) Three days after transfection, mKate positive cells and cell viability were quantified across all replicates, along with positive (original RecT SSAP) and negative (Flag-HA control protein) controls. […] At the same time, the cell viability was measured by live cell counts via flow cytometry, to help quantify the fitness effect of SSAP on mammalian cells.
(§4) SSAP proteins are identified by Uniparc deposit number and SEQ ID NO. Alignment numbers correspond to SSAPs in FIGS. 58, 59, and 60.

mammalian cells = assay: Arrayed SSAP library screening, cell viability by live cell counts via flow cytometry
Method: as §2, §3, §4

Molecule | dCas9 with SSAP activity (gene editing with dCas9) | dCas9 with SSAP activity (normalized) (gene editing with dCas9) | Activity across all experiments [1] | Cas9 with SSAP activity (gene editing with Cas9) | Cas9 with SSAP activity (normalized) (gene editing with Cas9) | Editing Efficiency (Normalized, Average, two targets) [2] | Editing Efficiency (Absolute, Average, two targets) [2] | Cell Viability (Average, two targets) (mammalian cells)
SSAP_64: SEQ ID NO: 233 (protein) SELQQAAQGQQSNNPVSFIYSHAKDIQNVLTKGTDMDRWLQMARLAVMRDQNLVASAKRDPGSLMQALLDCAEKGHVPGTEDYYLVPRKGGIQGMESWKGIAKRIMRSGRYQSIVNEVVYEGETFEFNPNTMDRPVHNINYMTRTSGKPVMSYAYALDHDGKPSSVAIADPRYIAKVKKNSRGSVWEDWDEQMYRKTAVKMLQDYVDTSSVDRRDVSTVQVDDANVIDVDDTFTAREAGE | −2.755 | −1.023 | −0.583 | 1.588 | 1.090 | – | – | –
SSAP_98: SEQ ID NO: 267; Pseudomonas fluorescens (protein, listed as Pseudomonas fluorescens) NSTAETATPFSSQDLEKTQPTKAQSKTGSLASLLASPKMKSQFAAALPKHMTPERMARIVTTEIRKNPELVKCEQHSFLGAVIQCAQLGLEPGNTLGHAYILPYGKQAQLIIGYRGMIDLARRSGQIISISARTVREGDYFEYEFGLDENLIHRPVETTQPGAVTHVYAVARLKDGGRQFEVMSRAQIEEVRVQSKAAKSGPWVTHWEEMAKKTVIRRVFKYLPVSVEIQRAVMLDEKAEAGVCQENECVFDGDFEVITDTEE | −2.696 | −0.444 | −0.971 | 0.754 | 0.207 | – | – | –
SSAP_23: SEQ ID NO: 192 (protein) TNNQLATQIKRDITTDPSLLTGADIKKYFDPQNLLTEKQVGQALALCKGRNLNPFANEVYIVAYQNNSGTEFSLIVSKEAFMKRAERCEGYDGFEAGITVMRNGEMIEIEGSLKLPEDILIGGWAVVYRKDRSHRYKVTVDFNEYVKTDRNGNPRSTWKSMPATMIRKTALVQTLREAFPDELGNMYTDIDGGDTFDAIKDVTPQESREDVVARKMAQIDQFNKEQEANHADPEPTQNEDPIQGELLDGELEY | −2.835 | −0.450 | −0.998 | 0.839 | 0.359 | – | – | –
SSAP_152: SEQ ID NO: 321; Clostridiaceae bacterium (protein, listed as Clostridiaceae bacterium) SNLKKALKTNETKGNSVTVSKAYAMKQLMIKMKGEITSALPTNLSSERFEKVALTAFNSNPKLQKCDPRTFIAAMMQSAQLGLEPNTALGLAYLIPYEVKGINKVQFQIGYKGLLELANRSGKLKTLYAHEVRENDEFDIDYGLEQKLIHKPLLKGNRGNVIGYYAVYHLEPSGYNFVFMTYDEVLEHGKKYSKSFEGGVWEKEFDSMAKKTVIKKLLKYAPLSIEMQKAIVFDESVKGSIDSDMLLVDKEDESIEGSELN | – | – | – | – | – | 6.574 | 16.25 | 1.159
SSAP_154: SEQ ID NO: 323; Corynebacterium urealyticum (protein, listed as Corynebacterium urealyticum) AKNLEARMQQSTNAPARADKPLSLPDQIRQMEDQFRLAMPKGAEATQLVRDALTCLRQTPQLAQCTPASVLGGLMTCAQLGLRPGVLGHAYLIPFNDRRSGNSVAQLVIGYQGLVELAHRSGQIKALIARTVYENDHFDVDYGLEDKLVHKPHMGADKGNPVAYYAVVKFTTGGHAFYVMSHPEMLQYRDKNAKSPKRGPWVDNFEAMAHKTCVRQLAKWMPKSTEFSQALATDESIRLDVTPDAINYPDHPAEGEVIDGEVEQDGGQQ | −2.710 | −0.380 | −1.758 | −0.806 | −0.733 | – | – | –
SSAP_218: SEQ ID NO: 387; Streptococcus lutetiensis (protein, listed as Streptococcus lutetiensis) ANQLQMSHKDFFNRPAVKNKFSEVVSGKSDQFITSLLSVVNNNKLLSKADNNSILNAAMKAATLNLPIEPSLGSAYIVPFKGQAQFQLGYKGLIELAQRSGQYKSINAGVVYKAQFKSYDPLFETLDLDFNQPQDEVIGYFACFELLNGFRKITYWTREEVYNHGKRFSKSFNNGPWKTDFDAMAKKTLLKSIIGTYGPKSVDMQEAITDDNKTEYEKAEPIDVTPQEENLTDLIGETPQEELPIANPETGEIQEEQTALFNQLGDLTDD | −2.770 | −0.443 | −4.836 | −6.903 | −1.680 | – | – | –
SSAP_173: SEQ ID NO: 342; Tyzzerella nexilis (protein, listed as Tyzzerella nexilis) AGVKEELAKKAESTKGETKLTKSMSIADLIKAMEPEIKKALPEVITPERFTRMALSALNTTPKLRECTQMSFLAALMNAAQLGLEPNTPLGQAYLIPYNNKGVMECQFQIGYKGLIDLSYRNPQMQIISAQAVYENDDFSYELGLNPKLEHCPTLGERGEVRLFYGFFKLVNGGFGFEVMSKTAMDEYAKEYSKAFDSSFSPWKSNYIGMAKKTVIKQALKYAPLKTDFRKALSNDETIKTELSDDMSDIHGEEIWDVEYQEKTA | – | – | – | – | – | 4.674 | 11.55 | 0.8787
SSAP_104: SEQ ID NO: 273; Salinicoccus albus (protein, listed as Salinicoccus albus) STNESLKNQVATNQKNEVSNGNKPKTIGDYIDQMAPAMAQALPKHMSVERMTRMATTVIRTTPQLKEADVASLLGAVMQSAQLGLEPGPMGHCYFLPFKNNKKGTTEVTFIIGYKGMIDLARRSGHISTIYAHAVYENDEFEYELGLHADLKHKPSEDERGAFKGAYAVAHFKDGGYQFEYMPKSDIDKRRSRSKAGNSNYSPWATDYEEMAKKTVIRHMWKYLPVSVEMQQAVAHDEGTGKDIKDVTPDEDSFVDMPEYIADVPAEGEGE | −2.685 | −0.421 | −3.455 | −4.226 | −0.744 | – | – | –
SSAP_239: SEQ ID NO: 408; Paenibacillus polymyxa (protein, listed as Paenibacillus polymyxa) PDKLLVIHDNLNKMLDEKSEAMPTSFNKTRFLQNCMAVLQDTKDIEQCDAKSVARTMLKGAFLGLDFFNKECYAIPYNENIGTKNKPRWIKSLQFQTDYKGEKKLAKKYSTRRVKDIYAKLVRDGDDFREEIESGQPTINFRPLPFNDGIIRGAFAVALFEDGGMIYETMSLKEIEKTRDDYSKQSTGKAWTKSPGEMYKKTVLRRLCKNIELDFDTIEQAQAFEDSSDFDMNKELKPQQQSPLNPNTTIIDAEYEEIKEEPADGPEQE | 2.282 | 1.278 | 1.811 | 1.340 | 0.516 | – | – | –
SSAP_29: SEQ ID NO: 198 (protein) STALATLAGKLAERVGMDSVDPQELITTLRQTAFKGDASDAQFIALLIVANQYGLNPWTKEIYAFPDKQNGIVPVVGVDGWSRIINENQQFDGMDFEQDDESCTCRIYRKDRNHPICVTEWMDECRRAPFKTREGREITGPWQSHPKRMLRHKAMIQCARLAFGFAGIYDKDEAERIVENTAYTTERQPERDITPVNEETMSEINALLTSMEKTWDDDLLPLCSQIFRRYIRASSELSQAEAEKVLGFLKQKATEQKVAA | – | – | – | – | – | 5.204 | 12.9225 | 1.131
SSAP_10: SEQ ID NO: 179; Bet Escherichia coli (protein, listed as Escherichia coli) STALATLAGKLAERVGMDSVDPQELITTLRQTAFKGDASDAQFIALLIVANQYGLNPWTKEIYAFPDKQNGIVPVVGVDGWSRIINENQQFDGMDFEQDNESCTCRIYRKDRNHPICVTEWMDECRREPFKTREGREITGPWQSHPKRMLRHKAMIQCARLAFGFAGIYDKDEAERIVENTAYTAERQPERDITPVNNETMQEINTLLIALDKTWDDDLLPLCSQIFRRDIRASSELTQAEAVKALGFLKQKATEQKVAA | – | – | – | – | – | 5.75 | 14.25 | 1.237
SSAP_67: SEQ ID NO: 236 (protein) TSQQLDTTHTINQQVTTFRHTLVQMKNEIAAALPAHMTGDRFLRLILTEVRKNPELAECSTESIFGGILTAAALGLEPGLNGECWLIPRKVGKGPGSRKEATFQVGYKGIIKLFWQNPLASYLDTGVVYANDAWKFRKGLDPILEHTPATGDRGAVRGYYAVVGLTTGARIFDFFTPKQISALRGTAGPNGGISDPEHWMERKTALLQVMKMAPKSTDLASAASVDGTVQTVEAAAQVAAASTGPVNPTTGEVLEAEPVEGGAA | – | – | – | – | – | 4.616 | 11.4625 | 1.088
